Target: human coagulation Factor X (human) (UniProt P00742)
Test: cell-based or functional assay

UniProt P00742, sequence (P00742 41-488): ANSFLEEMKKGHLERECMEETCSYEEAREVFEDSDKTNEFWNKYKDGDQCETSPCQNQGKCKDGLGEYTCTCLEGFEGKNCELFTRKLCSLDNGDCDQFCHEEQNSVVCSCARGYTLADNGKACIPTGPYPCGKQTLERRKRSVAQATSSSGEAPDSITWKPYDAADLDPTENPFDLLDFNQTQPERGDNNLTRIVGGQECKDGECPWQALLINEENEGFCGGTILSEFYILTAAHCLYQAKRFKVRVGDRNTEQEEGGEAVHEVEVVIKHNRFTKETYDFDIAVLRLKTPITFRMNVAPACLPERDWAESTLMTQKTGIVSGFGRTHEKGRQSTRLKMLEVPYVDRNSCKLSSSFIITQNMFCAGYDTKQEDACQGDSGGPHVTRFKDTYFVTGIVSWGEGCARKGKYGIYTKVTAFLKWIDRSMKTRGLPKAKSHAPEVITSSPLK

With “human furin (from UniProt P09958 108-794) (enzyme)” the estimated furin concentration in the cell culture medium resulting in equal or higher 90% fully processed FX of total FX (Emax model on Western blot densitometry and furin activity assay) was greater than 57 U/mL.

From patent US20160046957A1
